Source: patent publication US20240116985A1, “STAPLED PEPTIDES AND METHODS THEREOF” (priority 2020, published 2024)
Starred links: 1 amine or outer side, 2 acyl side, 3 side chain; linkers in the order of their positions; H or OH if unused. Positions of bridges follow the written chain, without caps; N, C: chain ends. Non-standard residues stand in square brackets, D forms with d. Primed or numbered codes have the meaning given here. PyrS2″ = (S)-3-amino-1-((pent-4-en-1-yloxy)carbonyl)pyrrolidine-3-carboxylic acid (stapling residue), C=CCCCOC(=O)N1CC[C@@](N[*:1])(C(=O)[*:2])C1; B5(4) = 2,2-bis(4-pentenyl)glycine = 2-amino-2-(pent-4-en-1-yl)hept-6-enoic acid (stitching residue), C=CCCCC(CCCC=C)(N[*:1])C(=O)[*:2]; B5(5) = 2,2-bis(4-pentenyl)glycine, 2-amino-2-(pent-4-en-1-yl)hept-6-enoic acid (stitching residue), C=CCCCC(CCCC=C)(N[*:1])C(=O)[*:2]; PyrS2 = (S)-3-amino-1-((pent-4-en-1-yloxy)carbonyl)pyrrolidine-3-carboxylic acid, C=CCCCOC(=O)N1CC[C@@](N[*:1])(C(=O)[*:2])C1; Me2Asn = listed as N4-methyl-L-asparagine, CNC(=O)C[C@H](N[*:1])C(=O)[*:2]; Phe(3-COOH) = N[C@@H](Cc1cccc(C(=O)O)c1)C(=O)O; Phe(2-CF3) = N[C@@H](Cc1ccccc1C(F)(F)F)C(=O)O; Bta = N[C@@H](Cc1csc2ccccc12)C(=O)O; Lys(iPr) = CC(C)NCCCC[C@H](N)C(=O)O; αAllylPro = C=CC[C@@]1(C(=O)O)CCCN1; tBuAla = CC(C)(C)C[C@H](N)C(=O)O; 3Thi = N[C@@H](Cc1ccsc1)C(=O)O; Cha = N[C@@H](CC1CCCCC1)C(=O)O; 34ClF = not defined here; Nle = CCCC[C@H](N)C(=O)O; Aib = CC(C)(N)C(=O)O

biological target: full-length beta-Catenin (Uniprot ID P35222) (Homo sapiens (Human)) (UniProt P35222); experiment: fluorescence polarization competition; 10 nM full-length beta-catenin, 10 nM 5FAM-TCF4(10-53) probe

| Binder | IC50 [nM] |
| --- | --- |
| Ac-[αAllylPro]N[tBuAla][B5(5)]DQ[Lys(iPr)]AFL[PyrS2″]F[Bta][Cha]-NH2 (staple 1-4, 4-11) [I-1652] | 10000 |
| Ac-[αAllylPro]N[tBuAla][B5(5)]DQ[Lys(iPr)]AFL[PyrS2″][Cha][Bta]Q-NH2 (staple 1-4, 4-11) [I-1651] | 3970 |
| Ac-[αAllylPro]N[tBuAla][B5(5)]DQ[Lys(iPr)]AF[Cha][PyrS2]F[Bta]Q-NH2 (staple 1-4, 4-11) [I-1650] | 1680 |
| Ac-[αAllylPro]D[tBuAla][B5(4)]D[Phe(3-COOH)][Nle]AFL[PyrS2″][3Thi][Bta][tBuAla]-NH2 (staple 1-4, 4-11) [I-2193] | 164 |
| Ac-[αAllylPro]D[tBuAla][B5(4)]D[Phe(3-COOH)][Aib]AFL[PyrS2″][3Thi][Bta][tBuAla]-NH2 (staple 1-4, 4-11) [I-2194] | 91 |
| Ac-[αAllylPro]D[tBuAla][B5(4)]D[Phe(3-COOH)][Me2Asn]AFL[PyrS2″][3Thi][Bta][tBuAla]-NH2 (staple 1-4, 4-11) [I-2196] | 41 |
| Ac-[αAllylPro]D[tBuAla][B5(4)]DDAAFN[PyrS2″][3Thi][34ClF]Q-NH2 (staple 1-4, 4-11; reading uncertain; also: printed as Ac-PL3-Asp-Npg-B5-Asp-Asp-Ala-Ala-Phe-Asn-PyrS2-3Thi-34C1F-Gln-NH2) [I-2182] | 5 |

Continued by falling IC50, values first:

| IC50 [nM] | Binder |
| --- | --- |
| 2130 | Ac-[αAllylPro]N[tBuAla][B5(5)]DQ[Lys(iPr)]AF[Lys(iPr)][PyrS2″]F[Bta][Lys(iPr)]-NH2 (staple 1-4, 4-11) [I-1654] |
| 903 | Ac-[αAllylPro]N[tBuAla][B5(5)]DQ[Lys(iPr)]AF[Lys(iPr)][PyrS2″]F[Bta]Q-NH2 (staple 1-4, 4-11) [I-1653] |
| 83 | Ac-[αAllylPro]D[tBuAla][B5(4)]D[Phe(3-COOH)][Nle]AFL[PyrS2″][3Thi][Bta]V-NH2 (staple 1-4, 4-11) [I-2189] |
| 62 | Ac-[αAllylPro]D[tBuAla][B5(4)]D[Phe(3-COOH)]SAFL[PyrS2″][3Thi][Bta][tBuAla]-NH2 (staple 1-4, 4-11) [I-2195] |
| 22 | Ac-[αAllylPro]D[tBuAla][B5(4)]D[Phe(3-COOH)]QAFL[PyrS2″][3Thi][Bta][tBuAla]-NH2 (staple 1-4, 4-11) [I-2192] |
| 21 | Ac-[αAllylPro]D[tBuAla][B5(4)]D[Phe(3-COOH)]AAFL[PyrS2″][Phe(2-CF3)][Bta][MorphGln]-NH2 (staple 1-4, 4-11) [I-2541] |
| 21 | Ac-[αAllylPro]D[tBuAla][B5(4)]D[Phe(3-COOH)]AAFF[PyrS2″][Phe(2-CF3)][Bta][Me2Gln]-NH2 (staple 1-4, 4-11) [I-2534] |
| 16 | Ac-[αAllylPro]D[tBuAla][B5(4)]D[Phe(3-COOH)][Me2Asn]AFL[PyrS2″][3Thi][Bta]V-NH2 (staple 1-4, 4-11) [I-2191] |
